According to paper PMC10119233:

Experiments:
[1] = molecular target: N1_(10-14)Fc, Notch1 EGF-like repeats 10–14 fused to human IgG Fc (human) (UniProt P46531); assay: mass photometry; purified Notch decoys; oligomeric state
[2] = molecular target: N4_(10-14)Fc, Notch4 EGF-like repeats 10–14 fused to human IgG Fc (human) (UniProt Q99466); assay: as above
[3] = molecular target: Recombinant Fc-tagged hDLL4 (human) (UniProt Q9NR61); assay: SPR; Biacore T200, CM5 chip; hDLL4-Fc or hJAG1-Fc on the chip (amine coupling by the results; captured after immobilising human IgG Fc by the methods), up to 20,000 RU; N1_(10-14)Fc or N4_(10-14)Fc as analyte, multi-cycle kinetics; HBS-N (10 mM HEPES, 150 mM NaCl), 0.005% Tween 20, 1 mM CaCl2, 2 mM MgCl2, pH 7.4; 25 °C, 25 μl/min; KD = kd/ka
Recombinant Fc-tagged hDLL4 (human), sequence (Q9NR61 27-529): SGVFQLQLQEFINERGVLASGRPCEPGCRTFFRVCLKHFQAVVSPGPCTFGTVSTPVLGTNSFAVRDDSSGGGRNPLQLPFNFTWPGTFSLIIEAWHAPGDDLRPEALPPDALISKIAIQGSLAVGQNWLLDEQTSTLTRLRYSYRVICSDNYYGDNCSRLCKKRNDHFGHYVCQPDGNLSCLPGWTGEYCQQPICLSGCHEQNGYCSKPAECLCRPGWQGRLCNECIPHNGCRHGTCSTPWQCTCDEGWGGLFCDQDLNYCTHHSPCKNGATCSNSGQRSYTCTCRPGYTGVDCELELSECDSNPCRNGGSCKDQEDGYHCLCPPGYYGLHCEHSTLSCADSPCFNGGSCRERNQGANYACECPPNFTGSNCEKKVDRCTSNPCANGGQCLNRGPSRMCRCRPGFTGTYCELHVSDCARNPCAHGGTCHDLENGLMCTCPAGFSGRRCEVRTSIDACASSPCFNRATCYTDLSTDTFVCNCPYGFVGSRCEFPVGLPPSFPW

Row | stoichiometry N [1] | stoichiometry N [2] | Kd [3] | Substance
1 | 2 | – | – | N1_(10-14)Fc, Notch1 EGF-like repeats 10–14 fused to human IgG Fc (from UniProt P46531 19-2555) (Fc fusion)
2 | – | 2 | 963 nM | N4_(10-14)Fc, Notch4 EGF-like repeats 10–14 fused to human IgG Fc (from UniProt Q99466 24-2003) (Fc fusion)
